The results in this text go back to publication PMC9337809 (Brain, 2022).

What all share (assay): ELISA
(In general: ELISA stands for enzyme-linked immunosorbent assay.)

In one assay the target is SOD protein aggregates (Homo sapiens (assumed), UniProt P00441).
The target of assay [1] is α-synuclein protein aggregates (Homo sapiens, UniProt P37840).
Assay [2] addresses Aβ(1–28), synthetic, aggregated in the presence of Ca2+ (Homo sapiens, UniProt P05067).

Sequence of SOD protein aggregates (P00441 whole entry): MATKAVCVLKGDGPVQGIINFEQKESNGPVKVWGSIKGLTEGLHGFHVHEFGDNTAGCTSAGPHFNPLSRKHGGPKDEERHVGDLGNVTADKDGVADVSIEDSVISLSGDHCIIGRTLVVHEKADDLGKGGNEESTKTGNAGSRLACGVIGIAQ
Sequence of Aβ(1–28), synthetic, aggregated in the presence of Ca2+ (P05067 672-699): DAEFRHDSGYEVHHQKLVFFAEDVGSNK

B1: B28, human monoclonal antibody raised against synthetic oligomeric amyloid-β (antibody, V domains shown)
VH: QVQLVESGGGVVQPGRSVRLSCAATGFTFSSYGMHWVRQAPGKGLEWVAVIWFDGSNEYYADSVRGRFTISRDNSKNTLYLQMNSLRAEDTAVYYCARRGRVGVTRNYYYYNMDVWGQGTTVTVSS
VL: AIQMTQSPSSLSASVGDRVTITCRASQGIRNDLGWFQQKPGKAPKLLIYPASSLQSGVPSRFSGSGSDTDFTLTISSLQPEDFATYYCLQDYNFPFTFGPGTKVDIK
In the case of B1, the binding result (in the assay with SOD protein aggregates; in assay [1]) was “no binding” throughout.

B2: B24, human monoclonal antibody raised against synthetic oligomeric amyloid-β (antibody, V domains shown)
VH: EVQLLESGGGLVQPGGSLRLSCAASGFTFSSYAMTWVRQAPGEGLEWVSTISGSGIRTYYADSVKGRFTISRDNSKNTMYLQMNSLRAEDTAVYYCAKDGLTGDRRWYFDLWGRGTLVTVSS
VL: EIVMTQSPATLSLSPGERATLSCRASQSVSSSYFSWYQQKPGQAPRLLIYGASTRATGIPARFSGSGSGTDFTLTISSLQPEDFAVYYCQQDSNLPLTFGGGTKVEIK
Turning to B2, the binding result in assay [2] is “binds”; with SOD protein aggregates, “no binding”; in assay [1], “no binding”.
